In publication PMC8809517, “Cofactor-independent RNA editing by a synthetic S-type PPR protein”:

T1: GFP-9S library array, motif 4 ND N98V;D124M (synthetic construct, N98V;D124M)
T1 chain: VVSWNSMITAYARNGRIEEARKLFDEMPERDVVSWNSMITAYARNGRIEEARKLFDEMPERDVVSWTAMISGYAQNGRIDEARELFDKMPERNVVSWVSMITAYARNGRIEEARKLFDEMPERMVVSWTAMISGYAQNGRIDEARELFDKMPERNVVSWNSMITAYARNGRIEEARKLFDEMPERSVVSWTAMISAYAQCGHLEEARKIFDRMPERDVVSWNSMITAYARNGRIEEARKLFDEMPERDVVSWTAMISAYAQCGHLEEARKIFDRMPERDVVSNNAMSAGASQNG

T2: GFP-9S library array, motif 4 ND N98A;D124W (synthetic construct, N98A;D124W)
T2 chain: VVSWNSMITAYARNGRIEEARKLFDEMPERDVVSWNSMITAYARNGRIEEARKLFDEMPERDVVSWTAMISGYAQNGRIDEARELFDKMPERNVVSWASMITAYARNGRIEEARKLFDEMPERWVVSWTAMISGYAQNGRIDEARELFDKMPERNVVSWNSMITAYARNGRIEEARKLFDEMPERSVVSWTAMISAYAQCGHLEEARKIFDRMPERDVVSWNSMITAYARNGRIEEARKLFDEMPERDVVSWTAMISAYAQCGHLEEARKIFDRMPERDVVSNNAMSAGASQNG

T3: GFP-9S library array, motif 4 ND N98R;D124N (synthetic construct, N98R;D124N)
T3 chain: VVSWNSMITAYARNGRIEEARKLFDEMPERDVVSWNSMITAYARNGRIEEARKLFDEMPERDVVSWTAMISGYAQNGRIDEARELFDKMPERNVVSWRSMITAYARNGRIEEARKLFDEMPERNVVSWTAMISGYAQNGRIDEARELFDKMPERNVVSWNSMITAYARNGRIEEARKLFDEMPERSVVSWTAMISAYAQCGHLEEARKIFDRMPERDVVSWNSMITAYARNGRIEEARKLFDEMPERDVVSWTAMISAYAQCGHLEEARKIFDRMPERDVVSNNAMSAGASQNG

T4: GFP-9S library array, motif 4 ND N98I;D124E (synthetic construct, N98I;D124E)
T4 chain: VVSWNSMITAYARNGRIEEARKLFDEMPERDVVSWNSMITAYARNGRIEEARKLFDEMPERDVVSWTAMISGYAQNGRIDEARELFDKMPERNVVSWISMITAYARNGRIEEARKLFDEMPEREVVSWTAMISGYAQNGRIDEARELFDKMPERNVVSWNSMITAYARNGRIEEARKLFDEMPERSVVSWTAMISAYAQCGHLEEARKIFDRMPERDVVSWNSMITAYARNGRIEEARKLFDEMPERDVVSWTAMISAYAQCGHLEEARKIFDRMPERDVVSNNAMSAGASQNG

T5: GFP-9S library array, motif 4 ND N98W;D124M (synthetic construct, N98W;D124M)
T5 chain: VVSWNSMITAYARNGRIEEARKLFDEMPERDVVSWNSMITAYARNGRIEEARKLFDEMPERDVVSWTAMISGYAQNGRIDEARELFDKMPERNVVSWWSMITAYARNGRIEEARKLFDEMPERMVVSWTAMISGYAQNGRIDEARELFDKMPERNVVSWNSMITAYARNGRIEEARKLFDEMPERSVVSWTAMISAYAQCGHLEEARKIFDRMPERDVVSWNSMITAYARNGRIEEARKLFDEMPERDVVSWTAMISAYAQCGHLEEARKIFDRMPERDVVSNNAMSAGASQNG


Legend:
Assay in all cases: high-throughput RNA pulldown from lysate on Ni-NTA beads; HRP: 50 mM Tris pH 8, 150 mM NaCl, 1 mM beta-mercaptoethanol, 50 ug/ml BSA, 3 ug/ml yeast RNA, 0.5% heparin; ITC and FP: Tris pH 8, 200 mM KCl, 5% glycerol; MST: 50 mM Tris pH 8, 200 mM NaCl, 1 mM DTT, BSA, heparin, 0.05% Tween 20
Conditions in all cases: tags: N-terminal His-eGFP
[1] = biological target: T1, GFP-9S library array, motif 4 ND …
[2] = biological target: T2, GFP-9S library array, motif 4 ND …
[3] = biological target: T3, GFP-9S library array, motif 4 ND …
[4] = biological target: T4, GFP-9S library array, motif 4 ND …
[5] = biological target: T5, GFP-9S library array, motif 4 ND …

Row | Binder | Kd ([1]; label: 5' Cy5) [nM] | Kd ([2]; label: 5' Cy5) [nM] | Kd ([3]; label: 5' Cy5) [nM] | Kd ([4]; label: 5' Cy5) [nM] | Kd ([5]; label: 5' Cy5) [nM] | Kd ([1]; label: 5' IRDye 800CW) [nM] | Kd ([2]; label: 5' IRDye 800CW) [nM] | Kd ([3]; label: 5' IRDye 800CW) [nM] | Kd ([4]; label: 5' IRDye 800CW) [nM] | Kd ([5]; label: 5' IRDye 800CW) [nM]
1 | AUUAGACGUGA (ssRNA) [Cy5-rpoA-G] | 155 | 104 | 118 | 78.6 | 102 | – | – | – | – | –
2 | AUUAAACGUGA (ssRNA) [IR-rpoA-A] | – | – | – | – | – | 431 | 138 | 200 | 48.6 | 235
3 | AUUAUACGUGA (ssRNA) [IR-rpoA-U] | – | – | – | – | – | 294 | 149 | 95.9 | 43.1 | 175
4 | AUUACACGUGA (ssRNA) [Cy5-rpoA] | 148 | 129 | 98 | 97.2 | 96.1 | – | – | – | – | –
